Experimental data reported in US20100004162A1 (ROCKEFELLER UNIVERSITY, published 2010).
Where “and” joins values, the source holds several entries; their conditions need not be identical. Equal entries are not always repeated.

B1: Lynx/AP fusion protein (other)
chain: LECHVCAYNGDNCFKPMRCPAMATYCMTTRTYFTPYRMKVRKSCVPSCFETVYDGYSKHASATSCCQYYLCN
notes: It was used as conditioned medium of transfected 293T cells; also called Lynx1-alkaline phosphatase (AP) fusion; Lynx/AP supernatant; not shown: secreted human placental alkaline phosphatase from the APtag-4 vector

Legend:
[1] = molecular target: chicken α4β2 nicotinic acetylcholine receptor expressed in Xenopus oocytes (chicken) (UniProt P09482); assay: cell-based or functional assay
chicken α4β2 nicotinic acetylcholine receptor expressed in Xenopus oocytes (chicken), sequence (P09482 24-622, chain 1 of 2): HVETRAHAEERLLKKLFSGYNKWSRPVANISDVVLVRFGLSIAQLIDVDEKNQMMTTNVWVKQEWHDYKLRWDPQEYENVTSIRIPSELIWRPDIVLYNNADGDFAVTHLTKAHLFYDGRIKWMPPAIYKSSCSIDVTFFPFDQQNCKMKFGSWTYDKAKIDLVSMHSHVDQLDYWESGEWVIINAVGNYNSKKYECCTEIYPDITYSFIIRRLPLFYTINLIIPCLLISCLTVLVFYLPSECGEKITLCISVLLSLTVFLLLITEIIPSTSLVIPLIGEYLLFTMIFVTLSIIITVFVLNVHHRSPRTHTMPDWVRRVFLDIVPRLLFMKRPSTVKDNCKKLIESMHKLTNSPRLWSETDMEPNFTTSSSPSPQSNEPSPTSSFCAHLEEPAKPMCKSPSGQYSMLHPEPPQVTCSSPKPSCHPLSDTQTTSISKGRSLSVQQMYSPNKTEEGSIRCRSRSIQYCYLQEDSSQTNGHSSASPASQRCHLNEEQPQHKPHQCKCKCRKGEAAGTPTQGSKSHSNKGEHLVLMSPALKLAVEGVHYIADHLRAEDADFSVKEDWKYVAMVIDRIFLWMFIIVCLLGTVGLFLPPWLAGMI
chicken α4β2 nicotinic acetylcholine receptor expressed in Xenopus oocytes (chicken), sequence (P09484 19-491, chain 2 of 2, further chain): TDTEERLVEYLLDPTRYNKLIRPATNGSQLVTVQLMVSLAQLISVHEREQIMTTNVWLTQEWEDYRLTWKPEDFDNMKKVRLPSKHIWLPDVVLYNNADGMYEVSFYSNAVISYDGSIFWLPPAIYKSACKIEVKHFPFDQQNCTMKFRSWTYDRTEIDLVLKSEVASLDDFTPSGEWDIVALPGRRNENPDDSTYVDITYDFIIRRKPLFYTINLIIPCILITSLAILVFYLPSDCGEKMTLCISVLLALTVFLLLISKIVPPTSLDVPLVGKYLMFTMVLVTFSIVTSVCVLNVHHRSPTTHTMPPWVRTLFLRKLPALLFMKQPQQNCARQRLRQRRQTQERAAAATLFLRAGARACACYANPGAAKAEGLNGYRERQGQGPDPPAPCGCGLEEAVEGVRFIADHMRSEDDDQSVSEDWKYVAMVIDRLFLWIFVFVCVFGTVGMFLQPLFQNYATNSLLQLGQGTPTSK

[2] = molecular target: T1, nAChR alpha 7 subunit (chick alpha 7 construct) expressed in 293T cells (chick, UniProt P22770 24-502); assay: Far Western blot of extracts of transfected 293T cells
T1 construct: It was in the extract of transfected 293T cells, separated by SDS-PAGE and probed by Far Western
T1 sequence (P22770 24-502): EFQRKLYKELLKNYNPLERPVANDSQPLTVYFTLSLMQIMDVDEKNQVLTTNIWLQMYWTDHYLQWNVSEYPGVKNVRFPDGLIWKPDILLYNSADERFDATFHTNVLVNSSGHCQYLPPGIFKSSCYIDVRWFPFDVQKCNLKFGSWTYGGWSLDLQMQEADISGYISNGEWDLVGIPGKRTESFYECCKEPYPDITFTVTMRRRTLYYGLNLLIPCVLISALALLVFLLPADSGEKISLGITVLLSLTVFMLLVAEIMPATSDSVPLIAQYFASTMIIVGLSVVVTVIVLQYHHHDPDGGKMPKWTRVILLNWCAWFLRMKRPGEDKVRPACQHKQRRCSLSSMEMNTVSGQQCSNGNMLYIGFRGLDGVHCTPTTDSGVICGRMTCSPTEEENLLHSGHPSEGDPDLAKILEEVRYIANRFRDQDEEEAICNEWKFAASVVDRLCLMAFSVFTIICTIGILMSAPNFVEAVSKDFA
Description: Far Western Analysis. A fragment of the Lynx1 cDNA corresponding to the mature polypeptide was cloned in frame to the C-terminus of the coding sequence for the secreted human placental alkaline phosphatase (referred to as Lynx/AP). The APtag-4 vector was provided by Dr. John Flanagan (Cheng, H.-J. et al (1995) Cell 82, 371-381). Constructs were transfected into 293T cells using calcium phosphate precipitation. Conditioned media was collected and treated as described (Cheng, H.-J. et al (1995) Cell 82, 371-381): 20 μg of crude extract was electrophoretically separated and transferred to PVDF membrane (Immobilon P, Millipore). Filters were renatured as specified (Rodriguez, P. L. & Carrasco, L. (1994) Biotech. 17, 702-707), incubated overnight with equal amounts of cultured supernatants containing lynx/AP or unfused AP, washed, and treated with NBT/BCIP substrate according to manufacturer's directions (Pharmacia). To determine the relative activity of Lynx/AP protein compared to unfused AP, a dilution series of cultured supernatants was blotted onto nitrocellulose paper with a slot blot apparatus and reacted for AP activity.
The cells were harvested and lysed and cell extract was run out on an SDS-PAGE gel. […]

Molecule	amplitude of the ACh-evoked macroscopic currents [1]	binding result [2]
Lynx1-HA (CMV2611), column purified Lynx1 (from UniProt P0DP60 21-92) (ligand)	30% to 40% (2×) and 35%	
B1		binds
